T1: bL4_C36 (HIV-1 gp41 HR2-derived biotinylated peptide C36) (HIV-1 HXB2, N-terminal biotin; C-terminal amide)
T1 construct: also called gp41 C36 target peptide; control peptide C36
T1 peptide: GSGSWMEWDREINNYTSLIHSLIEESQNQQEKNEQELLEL

B1: Alphabody 'scAB_Env03' (designed binder)
chain: MGHHHHHHHHHHSSGHIEGRHMSIEEIQKPIATIQEAIAWIQKKIYMMTGGSGGGSGGGSGGGSGMSIEEIQKQIAAIQKQIAAIQKQIYAMTGGSGGGSGGGSGGGSGMSIEEIQKQIVAIMEQIVAIVKQISAMTP
notes: The tag of the construct tested is not described; also called scAB013_Env03
B2: Alphabody 'scAB013_C2' (designed binder)
chain: MSIEEIQKQIAAIQKQIAAIQKQIYRMTGGSSGGSMQMYTIQIQILIIQAQIQQIQNQIELMTLGGSSGGMSIEEIQKQIAAIQKQIAAIQKQIYRMTPLEHHHHHH
notes: Single-chain Alphabody that mimics gp41 HR2 (grafted B-helix), made in E. coli; also called wild type scAB013_C2

Columns and labels:
[1] = molecular target: T1, bL4_C36 (HIV-1 gp41 HR2-derived …); experiment: ELISA, biotinylated peptide on streptavidin, anti-His-HRP detection, sigmoid fit, apparent KD
[2] = molecular target: T2, Biotinylated N51 (HIV-1 gp41 HR1-derived peptide, residues 540 to 590 of HIV-1 HXB2) (HIV-1 HXB2, N-terminal biotin); experiment: as above
T2 construct: Immobilised through biotin on streptavidin; also called HIV-1 N51; biotinylated HIV-1 N51

[3] = molecular target: T2, Biotinylated N51 (HIV-1 gp41 …); experiment: SPR (BIAcore), biotinylated N51 on streptavidin chip, 1:1 Langmuir fit
[4] = molecular target: T1, bL4_C36 (HIV-1 gp41 HR2-derived …); experiment: ELISA, biotinylated peptide on streptavidin, anti-His-HRP detection, apparent KD

Row | Binder | Kd [1] [nM] | Kd [2] [nM] | Kd [3] [nM] | koff [3] [s⁻¹] | kon [3] [M⁻¹ s⁻¹] | Kd [4] [nM]
1 | B1 | 211 | – | – | – | – | –
2 | B2 | – | 18 | 2.07 | 0.000209 | 101000 | > 10000
